Measurements as given in patent publication US11028167 (CENTIVAX, dated 2021).
Changes are numbered by the printed parent chain. Like-named read-outs stand apart in the source and are kept apart here.

B1: COVID19_P06_G11 (scFv, V domains shown)
VH: QVQLVQSGAEVKKPGASVKVSCKASGNTFTGYYMHWVRQAPGQGLEWMGAIYPGGSDTSYNQKFQGRVTMTRDTSTSTVYMELSSLRSEDTAVYYCTREGIPQLAWTLDYWGQGTLVTVSS
VL: DIQMTQSPSSLSASVGDRVTITCRASQSMSSYLNWYQQKPGKAPKLLIYAASSLQSGVPSRFSGSGSGTEFTLTISSLQPEDIATYYCQQFGSFGGGTKVEIKR
B2: COVID19_R02_C12 (scFv, V domains shown)
VH: QVQLVQSGAEVKKPGASVKVSCKASGYTFTSYDINWVRQAPGQGLEWMGMVDPNSGNTYYAQKFQGRFTMTRDTSTSTVYMELSSLRSEDTAVYYCTREGIPQLLGTLDYWGQGTLVTVSS
VL: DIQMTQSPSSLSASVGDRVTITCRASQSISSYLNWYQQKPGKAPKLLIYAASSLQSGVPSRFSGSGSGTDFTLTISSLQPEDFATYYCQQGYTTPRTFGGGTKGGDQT
B3: COVID19_P06_F05 (scFv, V domains shown)
VH: QVQLVQSGAEVKKPGASVKVSCKASGYTFASYDVNWVRQAPGQGLEWMGIINPRSGDANYAQKFQGRVTMTRDTSTSTVYMELSSLRSEDTAVYYCTRERHPQLLMPLDYWGQGTLVTVSS
VL: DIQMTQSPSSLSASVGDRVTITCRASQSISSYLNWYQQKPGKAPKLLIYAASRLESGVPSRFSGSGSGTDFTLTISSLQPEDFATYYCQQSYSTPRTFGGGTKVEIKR
B4: COVID19_R02_F08 (scFv, V domains shown)
VH: QVQLVQSGAEVKKPGASVKVSCKASGYTFGNYAINWVRQAPGQGLEWMGAIYPGNSDTTYNQKFQGRVTMTRDTSTSTVYMELSSLRSEDTAVYYCARDTVMGGMDVWGQGTLVTVSS
VL: DIQMTQSPSSLSASVGDRVTITCRASQEISGYLSWYQQKPGKAPKLLIYAASSLQSGVPSRFSGSGSGTDFTLTISSLQPEDFATYYCQQYVSYPWTFGGGTKVEIKR
B5: COVID19_P06_G02 (scFv, V domains shown)
VH: QVQLVQSGAEVKKPGASVKVSCKASGYTFTSHDINWVRQAPGQGLEWMGMINPSGGYTSYAQNFQGRVTMTRDTSTSTVYMELSSLRSEDTAVYYCTREGIPALLRTLDYWGQGTLVTVSS
VL: B4 VL with E28G, S30R, G31N, Y32D, S34G, Y91T, V92Y, S93T, Y94T, W96Y
B6: COVID19_P06_F03 (scFv, V domains shown)
VH: B1 VH with N27Y, G31S, Y33S, G55N, S59T, N61A, R98L, E99D, A105L, W106R
VL: B4 VL with E28S, G31S, S34N, A50G, A51V, Q55H, Q89L
B7: COVID19_P06_C09 (scFv, V domains shown)
VH: B5 VH with H32Y, D33E, M50V, Y57H, S59N, N63K, A103Q, L105A, R106G
VL: B4 VL with E28S, S34N, Q55E, Y91G, V92Y, S93T, Y94T, W96R
B8: COVID19_P06_G10 (scFv, V domains shown)
VH: QVQLVQSGAEVKKPGASVKVSCKASGYDFINYYIHWVRQAPGQGLEWMGIIDPSGGSTSYAQKFQGRVTMTRDTSTSTVYMELSSLRSEDTAVYYCTREGIPQLLRTLDYWGQGTLVTVSS
VL: DIQMTQSPSSLSASVGDRVTITCRASQDISDSLAWYQQKPGKAPKLLIYAASSLQSGVPSRFSGSGSGTDFTLTISSLQPEDFATYYCQQSYSRLAWTFGGGTKVEIKR
B9: COVID19_R02_A12 (scFv, V domains shown)
VH: B8 VH with D28T, I30T, N31E, Y32N, Y33E, I34M, D52N, P53T, S57Y, S59N
VL: B4 VL with E28S, G31S, Y32W, S34A, Y91S, V92Y, Y94N, W96Y
B10: COVID19_R02_F04 (scFv, V domains shown)
VH: B8 VH with D28R, I30T, N31S, Y33E, I34V, H35N, D52N, R106W, T107A
VL: not shown
B11: COVID19_R02_B08 (scFv, V domains shown)
VH: B8 VH with D28T, I30T, N31S, D52N, S54R, G100A, I101K
VL: DIQMTQSPSSLSASVGDRVTITCRASQGIDTYLNWYQQKPGKAPKLLIYKASSLESGVPSRFSGSGSGTEFTLTINSLQPEDIATYYCQQYDNLPLTFGGGTKVEIKR
B12: COVID19_R02_D11 (scFv, V domains shown)
VH: B8 VH with D28T, I30T, N31E, Y32N, Y33E, I34M, D52N, G55A
VL: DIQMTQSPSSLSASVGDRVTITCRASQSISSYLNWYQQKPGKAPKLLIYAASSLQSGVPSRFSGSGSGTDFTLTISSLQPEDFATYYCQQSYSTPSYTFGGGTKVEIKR
B13: COVID19_P06_G03 (scFv, V domains shown)
VH: QVQLVQSGAEVKKPGASVKVSCKASGYTFTENEMHWVRQAPGQGLEWMGVVNPSGGYTSYAQKFQGRVTMTRDTSTSTVYMELSSLRSEDTAVYYCTREGIPQLLRSQDYWGQGTLVTVSS
VL: not shown
B14: COVID19_R02_B06 (scFv, V domains shown)
VH: B13 VH with V51I, S107H, Q108L
VL: B4 VL with E28S, G68W, Y91S, V92Y, Y94T, W96L
B15: COVID19_R02_F07 (scFv, V domains shown)
VH: B13 VH with V50I, V51I, P53T, S59N, S107T, Q108L
VL: B4 VL with E28S, G31S, Y32W, S34A, Y91S, V92Y, Y94N, W96L, T97H
B16: COVID19_R02_C11 (scFv, V domains shown)
VH: B8 VH with D28T, I30S, N31D, I34M, T58A
VL: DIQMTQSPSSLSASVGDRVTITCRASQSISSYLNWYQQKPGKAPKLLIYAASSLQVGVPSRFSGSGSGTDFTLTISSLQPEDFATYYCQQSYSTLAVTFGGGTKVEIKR
B17: COVID19_R02_D03 (scFv, V domains shown)
VH: B13 VH with N32Y, V50I, V51I, S59N, L104V, S107T, Q108L
VL: B4 VL with E28S, G31S, Y32W, S34A, Y91S, V92Y, Y94N, W96Y
B18: COVID19_R02_E11 (scFv, V domains shown)
VH: B13 VH with V50I, V51I, Y57S, S107T, Q108L
VL: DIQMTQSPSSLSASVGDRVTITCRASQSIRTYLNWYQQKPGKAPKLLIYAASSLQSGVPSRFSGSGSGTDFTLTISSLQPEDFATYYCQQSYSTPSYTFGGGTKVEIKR
notes: also called COVID19_C R02_E11
B19: COVID19_R02_D07 (scFv, V domains shown)
VH: B13 VH with V50I, V51I, Y57S, I101P, S107T, Q108L
VL: DIQMTQSPSSLSASVGDRVTITCRASQSISSYLNWYQQKPGKAPKLLIYHTSNLETGVPSRFSGSGSGTDFTLTISSLQPEDFATYYCQQSYSFPATTFGGGTKVEIKR
B20: COVID19_R02_F06 (scFv, V domains shown)
VH: B13 VH with V50I, V51I, S54N, Y57G, S59Y, S107T, Q108L
VL: B4 VL with E28G, S30R, G31N, Y32D, S34G, Y91T, V92Y, Y94A, W96Y
B21: COVID19_R02_A05 (scFv, V domains shown)
VH: B13 VH with V50M, V51I, S59N, K63E, S107T, Q108L
VL: DIQMTQSPSSLSASVGDRVTITCRASQSIYRWLAWYQQKPGKAPKLLIYAASSLQSGVPSRFSGSGSGTEFTLTISSLQPEDFATYYCQQSYGNPYTFGGGTKVEIKR
B22: COVID19_R02_A04 (scFv, V domains shown)
VH: B13 VH with V50I, V51I, S54D, Y57S, S107T, Q108L
VL: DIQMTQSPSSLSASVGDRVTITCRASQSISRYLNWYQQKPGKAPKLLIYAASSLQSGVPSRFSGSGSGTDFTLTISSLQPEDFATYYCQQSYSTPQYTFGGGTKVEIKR
B23: COVID19_P06_C02 (scFv, V domains shown)
VH: B13 VH with V50I, V51I, Y57S, Q103W, L104W, S107T, Q108L
VL: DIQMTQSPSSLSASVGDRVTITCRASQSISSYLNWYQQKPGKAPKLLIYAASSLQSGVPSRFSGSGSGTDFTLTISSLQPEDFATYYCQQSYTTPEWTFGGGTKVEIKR
notes: also called COVID19_P06_CO2

How the values were obtained:
Assay in all cases: SPR, scFv captured by anti-V5, RBD analyte
[1] = molecular target: T1, SARS-CoV-2 Receptor Binding Domain (RBD) protein (SARS-CoV-2, UniProt P0DTC2 319-541)
[2] = molecular target: SARS-CoV-1 Receptor Binding Domain (RBD) protein (SARS-CoV-1, UniProt P59594 306-527)
[3] = molecular target: MERS Receptor Binding Domain (RBD) protein (Middle East Respiratory Syndrome (MERS) …, UniProt K9N5Q8 367-606)
[4] = molecular target: T1, SARS-CoV-2 Receptor Binding Domain …; remark: listed apart in the source

| Binder | Kd [1] | koff [1] | kon [1] | binding result [2] | binding result [3] | Kd [4] |
| --- | --- | --- | --- | --- | --- | --- |
| B1 | 21.5 nM | 0.0014 s⁻¹ | 65000 M⁻¹ s⁻¹ | no binding (tested: 300 nM) | no binding (tested: 300 nM) |  |
| B2 | 8.2 nM | 0.00059 s⁻¹ | 72000 M⁻¹ s⁻¹ | no binding (tested: 300 nM) | no binding (tested: 300 nM) |  |
| B3 | 0.9 nM | 5.7e-05 s⁻¹ | 61900 M⁻¹ s⁻¹ | no binding (tested: 300 nM) | no binding (tested: 300 nM) |  |
| B4 | 9.1 nM | 0.00071 s⁻¹ | 78000 M⁻¹ s⁻¹ | no binding (tested: 300 nM) | no binding (tested: 300 nM) |  |
| B5 | 6.92 nM | 0.0009 s⁻¹ | 130000 M⁻¹ s⁻¹ | no binding (tested: 300 nM) | no binding (tested: 300 nM) |  |
| B6 | 32.6 nM | 0.00532 s⁻¹ | 163000 M⁻¹ s⁻¹ | no binding (tested: 300 nM) | no binding (tested: 300 nM) |  |
| B7 | 2.47 nM | 0.00074 s⁻¹ | 300000 M⁻¹ s⁻¹ | no binding (tested: 300 nM) | no binding (tested: 300 nM) |  |
| B8 | 2.06 nM | 0.00068 s⁻¹ | 330000 M⁻¹ s⁻¹ | no binding (tested: 300 nM) | no binding (tested: 300 nM) |  |
| B9 | 46.3 nM | 0.0102 s⁻¹ | 219000 M⁻¹ s⁻¹ | no binding (tested: 300 nM) | no binding (tested: 300 nM) |  |
| B10 | 6.4 nM | 0.00036 s⁻¹ | 56000 M⁻¹ s⁻¹ |  |  |  |
| B11 |  |  |  |  |  | 166 nM |
| B12 | 4.9 nM | 0.00069 s⁻¹ | 140000 M⁻¹ s⁻¹ | no binding (tested: 300 nM) | no binding (tested: 300 nM) |  |
| B13 |  |  |  | no binding (tested: 300 nM) | no binding (tested: 300 nM) |  |
| B14 |  |  |  | no binding (tested: 300 nM) | no binding (tested: 300 nM) |  |
| B15 |  |  |  | no binding (tested: 300 nM) | no binding (tested: 300 nM) |  |
| B16 | 12.8 nM | 0.0011 s⁻¹ | 86000 M⁻¹ s⁻¹ | no binding (tested: 300 nM) | no binding (tested: 300 nM) |  |
| B17 |  |  |  | no binding (tested: 300 nM) | no binding (tested: 300 nM) |  |
| B18 | 7.9 nM | 0.00079 s⁻¹ | 100000 M⁻¹ s⁻¹ | no binding (tested: 300 nM) | no binding (tested: 300 nM) |  |
| B19 | 6.3 nM | 0.00043 s⁻¹ | 68000 M⁻¹ s⁻¹ | no binding (tested: 300 nM) | no binding (tested: 300 nM) |  |
| B20 |  |  |  | no binding (tested: 300 nM) | no binding (tested: 300 nM) |  |
| B21 |  |  |  | no binding (tested: 300 nM) | no binding (tested: 300 nM) |  |
| B22 | 12.7 nM | 0.00069 s⁻¹ | 54400 M⁻¹ s⁻¹ | no binding (tested: 300 nM) | no binding (tested: 300 nM) |  |
| B23 | 6.15 nM | 0.000438 s⁻¹ | 71200 M⁻¹ s⁻¹ | no binding (tested: 300 nM) | no binding (tested: 300 nM) |  |
